Bridge positions count the residues as written; N and C are the ends. Ends that are not written are not given here.
T1: fibrinogen (UniProt P02671 20-629; P02675 31-491; P02679 27-437, limits assumed)
T1 sequence (looked up) 1: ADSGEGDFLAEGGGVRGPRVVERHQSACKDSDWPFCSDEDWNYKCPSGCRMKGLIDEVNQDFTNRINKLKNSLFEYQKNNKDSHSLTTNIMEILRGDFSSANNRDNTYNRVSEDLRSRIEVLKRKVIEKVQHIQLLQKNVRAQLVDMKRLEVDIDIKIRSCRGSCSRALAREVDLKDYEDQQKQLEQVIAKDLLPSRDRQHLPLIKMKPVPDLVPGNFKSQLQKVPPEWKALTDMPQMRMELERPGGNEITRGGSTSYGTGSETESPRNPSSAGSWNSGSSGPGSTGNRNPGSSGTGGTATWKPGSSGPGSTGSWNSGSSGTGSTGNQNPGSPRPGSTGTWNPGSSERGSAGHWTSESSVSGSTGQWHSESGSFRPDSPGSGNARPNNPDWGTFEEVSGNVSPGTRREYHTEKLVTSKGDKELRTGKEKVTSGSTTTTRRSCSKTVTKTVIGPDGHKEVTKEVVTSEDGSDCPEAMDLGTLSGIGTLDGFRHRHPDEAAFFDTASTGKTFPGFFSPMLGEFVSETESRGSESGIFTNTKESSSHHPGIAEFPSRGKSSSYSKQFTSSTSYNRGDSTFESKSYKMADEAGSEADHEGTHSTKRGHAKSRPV
T1 sequence (looked up) 2: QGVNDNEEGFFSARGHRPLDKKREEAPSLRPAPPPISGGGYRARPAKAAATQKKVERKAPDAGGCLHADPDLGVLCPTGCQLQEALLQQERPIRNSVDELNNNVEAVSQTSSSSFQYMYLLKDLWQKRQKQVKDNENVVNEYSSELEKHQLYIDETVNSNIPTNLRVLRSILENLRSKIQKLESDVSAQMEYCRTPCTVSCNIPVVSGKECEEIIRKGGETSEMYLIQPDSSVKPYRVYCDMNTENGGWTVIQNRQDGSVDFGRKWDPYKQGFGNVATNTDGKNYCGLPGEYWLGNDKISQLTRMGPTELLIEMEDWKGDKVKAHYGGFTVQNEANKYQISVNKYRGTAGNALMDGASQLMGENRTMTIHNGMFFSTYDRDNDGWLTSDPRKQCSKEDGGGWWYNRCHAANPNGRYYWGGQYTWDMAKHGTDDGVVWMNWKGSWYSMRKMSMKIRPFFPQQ
T1 sequence (looked up) 3: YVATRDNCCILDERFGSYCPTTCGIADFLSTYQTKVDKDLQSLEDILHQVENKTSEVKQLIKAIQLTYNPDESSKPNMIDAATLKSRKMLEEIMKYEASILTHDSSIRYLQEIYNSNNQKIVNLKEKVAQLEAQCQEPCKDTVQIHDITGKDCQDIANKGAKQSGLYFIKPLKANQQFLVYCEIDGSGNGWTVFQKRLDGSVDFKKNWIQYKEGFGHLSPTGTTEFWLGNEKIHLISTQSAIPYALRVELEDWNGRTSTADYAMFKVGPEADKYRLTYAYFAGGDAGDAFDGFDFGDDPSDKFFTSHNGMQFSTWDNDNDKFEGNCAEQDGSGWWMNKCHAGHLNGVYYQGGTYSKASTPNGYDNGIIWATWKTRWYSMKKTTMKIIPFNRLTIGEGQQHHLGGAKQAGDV


Tests used:
[1] = biological target: T1, fibrinogen; assay: phage ELISA on immobilised fibrinogen
Method: (§1) After five rounds of selection, the eluted phage were propagated and a portion plated to isolate phage plaques arising from individual clones. Ninety such clones were selected randomly, propagated, and tested individually for binding to fibrin in a dried fibrin plate assay. Dried fibrin plates were prepared as described above for the library screening. Phage samples (˜10⁹ phage each) were incubated in the dried fibrin plate wells in binding buffer (50 mM Tris, 150 mM NaCl, 2 mM CaCl₂, 0.05% Tween-20) containing 0.1% HSA. After 1 hour, the plates were washed 5 times with binding buffer. Anti-M13 antibody conjugated to horseradish peroxidase (Pharmacia) was added at 1/5000 dilution in binding buffer to the wells and incubated with the fibrin for 1 hour. The wells were again washed 5 times with binding buffer and the presence of the antibody/phage/fibrin complex was measured with HRP calorimetric reagents (3,3′,5,5′-tetrarnethylbenzidine (TMB) and H₂O₂). A high absorbance at 595 nm (due to oxidized TMB) was indicative of a tight phage/fibrin interaction, and phage clones corresponding to those wells were identified as bearing fibrin-binding moieties.
(§2) These fibrin-binding positive clones were subjected to several secondary ELISA assays. These assays followed a similar protocol to that detailed above for the dried fibrin ELISA assay, the only variations being the method of target immobilization and the omission of HSA from binding and wash buffers. A screen against DD(E) acted as a further confirmation of fibrin binding activity. An ELISA screen against fibrinogen (immobilized to the plate by the biotin/streptavidin protocol used for DD(E)) was a check against fibrinogen binding and confirmed that the negative selection procedure detailed in Example 2 had been effective. Finally, ELISAs to assay binding to immobilized HSA (passively bound to the polystyrene plate) and a target-free microtiter plate were controls to eliminate phage that bound promiscuously or nonspecifically.

[2] = biological target: T2, human serum albumin (human, UniProt P02768 25-609); assay: phage ELISA on immobilised HSA
T2 construct: also called HSA
T2 sequence (P02768 25-609 limits assumed): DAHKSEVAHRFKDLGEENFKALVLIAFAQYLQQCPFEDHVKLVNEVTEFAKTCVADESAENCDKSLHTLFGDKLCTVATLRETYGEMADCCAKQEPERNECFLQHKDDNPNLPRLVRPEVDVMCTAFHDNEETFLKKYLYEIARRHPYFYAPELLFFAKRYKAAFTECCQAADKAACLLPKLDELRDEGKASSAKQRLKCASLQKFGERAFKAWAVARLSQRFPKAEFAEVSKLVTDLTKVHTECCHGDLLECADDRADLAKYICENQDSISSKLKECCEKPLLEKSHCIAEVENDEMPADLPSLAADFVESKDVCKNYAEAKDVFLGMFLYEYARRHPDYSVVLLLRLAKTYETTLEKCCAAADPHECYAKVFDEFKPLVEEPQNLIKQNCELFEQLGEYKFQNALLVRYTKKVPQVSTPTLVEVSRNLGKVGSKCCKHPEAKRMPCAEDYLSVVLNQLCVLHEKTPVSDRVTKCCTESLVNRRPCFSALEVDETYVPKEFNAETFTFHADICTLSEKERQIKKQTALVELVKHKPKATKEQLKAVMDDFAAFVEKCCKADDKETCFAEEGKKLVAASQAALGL
Method: as §1, §2

[3] = biological target: DD(E) soluble fibrin-derived polypeptide (UniProt P02671); assay: Kd against DD(E) target

Binder	binding result [1]	binding result [2]	Kd [3]
FSCWYSLHCHR (not fully specified (bridges); cysteine pairing not given here, Tested as a phage clone; not shown: not specified) [TN7 isolate 12, phage-displayed FSCWYSLHCHR]	no binding	no binding	
LPCDYYGTCLD (Tested as a phage clone; not shown: not specified) [TN7 isolate 3, phage-displayed LPCDYYGTCLD]		no binding	
LSCDYYGTCLR (not fully specified (bridges); cysteine pairing not given here, Tested as a phage clone; not shown: not specified) [TN7 isolate 2, phage-displayed LSCDYYGTCLR]	no binding	no binding	
HDCQYYGTCLH (not fully specified (bridges); cysteine pairing not given here, Tested as a phage clone; not shown: not specified) [TN7 isolate 11, phage-displayed HDCQYYGTCLH]	no binding	no binding	
DPCSYYGTCLH (not fully specified (bridges); cysteine pairing not given here, Tested as a phage clone; not shown: not specified) [TN7 isolate 4, phage-displayed DPCSYYGTCLH]	no binding	no binding	
LPCSYYGTCLH (not fully specified (bridges); cysteine pairing not given here, Tested as a phage clone; not shown: not specified) [TN7 isolate 5, phage-displayed LPCSYYGTCLH]	no binding	no binding	
GWFHCPYDLCHIL (disulfide 5-10 (inferred); not fully specified (N-terminus); printed as Trp-Phe-His-Cys-Pro-Tyr-Asp-Leu-Cys-His-Ile-Leu; also: Gd(III) chelated by DTPA on N-terminal Gly) [Gd-DTPA-Gly[SEQ ID NO: 21]]			2900 nM
RPCDYYGTCFD (not fully specified (bridges); cysteine pairing not given here, Tested as a phage clone; not shown: not specified) [TN7 isolate 1, phage-displayed RPCDYYGTCFD]	no binding	no binding	
FACHYYGTCLH (not fully specified (bridges); cysteine pairing not given here, Tested as a phage clone; not shown: not specified) [TN7 isolate 6, phage-displayed FACHYYGTCLH]	no binding	no binding	
LACHYYGTCLH (not fully specified (bridges); cysteine pairing not given here, Tested as a phage clone; not shown: not specified) [TN7 isolate 7, phage-displayed LACHYYGTCLH]	no binding	no binding	
RSCNYYGTCLH (not fully specified (bridges); cysteine pairing not given here, Tested as a phage clone; not shown: not specified) [TN7 isolate 9, phage-displayed RSCNYYGTCLH]	no binding	no binding	
RPCNYYGTCLH (not fully specified (bridges); cysteine pairing not given here, Tested as a phage clone; not shown: not specified) [TN7 isolate 10, phage-displayed RPCNYYGTCLH]	no binding	no binding	
DGCHYYGTCLH (not fully specified (bridges); cysteine pairing not given here, Tested as a phage clone; not shown: not specified) [TN7 isolate 8, phage-displayed DGCHYYGTCLH]	no binding	no binding	

From US20050261472A1, “Binding moieties for fibrin” (Dyax Corp., priority 1999, published 2005)
